Publication PMC6888645, “Oligomerization Affects the Ability of Human Cyclase-Associated Proteins 1 and 2 to Promote Actin Severing by Cofilins” (International Journal of Molecular Sciences, 2019)

Legend:
[1] = target: the molecule itself; assay: AUC; sedimentation velocity (SV-AUC), 50 µM protein, 20 °C, 50,000 rpm, absorbance at 280 nm, 20 mM Tris-HCl pH 8.0, SEDFIT c(S) model; buffer (Tris-HCl vs PBS) and salt did not affect the oligomerization state
[2] = target: F-actin (skeletal muscle actin, polymerised) ( (rabbit or chicken skeletal …, UniProt P68135 1-377)); assay: cell-based or functional assay

Row | potentiation of F-actin severing by 50 nM CFL1 with 750 nM N-CAP construct, single filaments by TIRF microscopy, against CFL1 alone [2] [fold] | Binder | stoichiometry N [1]
1 |  | N-CAP2, N-terminal fragment of human cyclase-associated protein 2 (original coiled coil and helical folded domain) (domain or fragment, UniProt P40123 1-220, looked up, cyclase-associated protein 2 (CAP2), human; N-terminal coiled coil (a.a. 1-29) followed by the helical folded domain (HFD); Cloned in pET21b; 30-220, so this construct probably ends at 220 (surmised); also called CAP2 tetramer; not shown: 6xHis, C-terminal, kept) MANMQGLVERLERAVSRLESLSAESHRPPGNCGEVNGVIAGVAPSVEAFDKLMDSMVAEFLKNSRILAGDVETHAEMVHSAFQAQRAFLLMASQYQQPHENDVAALLKPISEKIQEIQTFRERNRGSNMFNHLSAVSESIPALGWIAVSPKPGPYVKEMNDAATFYTNRVLKDYKHSDLRHVDWVKSYLNIWSELQAYIKEHHTTGLTWSKTGPVASTVS | 4
2 | > 2.5 | N-CAP1, N-terminal fragment of human cyclase-associated protein 1 (original coiled coil and helical folded domain) (domain or fragment, UniProt Q01518 1-220, looked up, cyclase-associated protein 1 (CAP1), human; N-terminal coiled coil (a.a. 1-29) followed by the helical folded domain (HFD); Cloned in pET21b; also called CAP1 tetramer; not shown: 6xHis, C-terminal, kept) MADMQNLVERLERAVGRLEAVSHTSDMHRGYADSPSKAGAAPYVQAFDSLLAGPVAEYLKISKEIGGDVQKHAEMVHTGLKLERALLVTASQCQQPAENKLSDLLAPISEQIKEVITFREKNRGSKLFNHLSAVSESIQALGWVAMAPKPGPYVKEMNDAAMFYTNRVLKEYKDVDKKHVDWVKAYLSIWTELQAYIKEFHTTGLAWSKTGPVAKELSGL | 4
